The results in this text go back to publication PMC5874916 (2018).

Assay [1] addresses T1, 6xHis-tagged WT RTp51/p66 heterodimer purified from E. coli (HIV-1, UniProt P04585 588-1027). Nature of the assay: BLI. For orientation: BLI is a label-free optical method that tracks binding on a fibre tip over time.
The target of assay [2] is T1, 6xHis-tagged WT RTp51/p66 heterodimer …. Nature of the assay: BLI. The source holds these as a separate data set.

B1: purified recombinant eEF1A1 (OriGene), biotinylated (natural protein)
chain: MGKEKTHINIVVIGHVDSGKSTTTGHLIYKCGGIDKRTIEKFEKEAAEMGKGSFKYAWVLDKLKAERERGITIDISLWKFETSKYYVTIIDAPGHRDFIKNMITGTSQADCAVLIVAAGVGEFEAGISKNGQTREHALLAYTLGVKQLIVGVNKMDSTEPPYSQKRYEEIVKEVSTYIKKIGYNPDTVAFVPISGWNGDNMLEPSANMPWFKGWKVTRKDGNASGTTLLEALDCILPPTRPTDKPLRLPLQDVYKIGGIGTVPVGRVETGVLKPGMVVTFAPVNVTTEVKSVEMHHEALSEALPGDNVGFNVKNVSVKDVRRGNVAGDSKNDPPMEAAGFTAQVIILNHPGQISAGYAPVLDCHTAHIACKFAELKEKIDRRSGKKLEDGPKFLKSGDAAIVDMVPGKPMCVESFSDYPPLGRFAVRDMRQTVAVGVIKAVDKKAAGAGKVTKSAQKAQKAK
modifications: biotin (EZ-Link-sulfo-NHS-biotin)
As to B1, binding in assay [1] was put at a Kd of 3.48 nM. The koff in assay [2] was determined as 0.000475 s⁻¹.

In general, Kd refers to a measure of binding affinity in units of concentration. A lower Kd goes with a tighter complex. In general, koff refers to the rate constant with which the complex falls apart. A higher koff goes with fast dissociation.
